Data taken from patent US8859223.

How the values were obtained:
EI(Thi)(Thi)-(Nva)AHF = target: T1, EI(Thi)(Thi)-(Nva)AHF
T1 chain: EIXXXAHF

EIDL-MVLD = target: T2, EIDL-MVLD
T2 chain: EIDLMVLD

EVNL-SSHD = target: T3, EVNL-SSHD
T3 chain: EVNLSSHD

EVNL-DAHF = target: T4, EVNL-DAHF
T4 chain: EVNLDAHF

APSL-DAHF = target: T5, APSL-DAHF
T5 chain: APSLDAHF

DETL-DAHF = target: T6, DETL-DAHF
T6 chain: DETLDAHF

ASNL-DAHF = target: T7, ASNL-DAHF
T7 chain: ASNLDAHF

EVNF-EVEF = target: T8, EVNF-EVEF
T8 chain: EVNFEVEF

EVNL-DAEF = target: T9, EVNL-DAEF
T9 chain: EVNLDAEF

EIDL-SSHD = target: T10, EIDL-SSHD
T10 chain: EIDLSSHD

B1: BACE enzyme (beta-secretase) (protein)
chain: ETDEEPEEPGRRGSFVEMVDNLRGKSGQGYYVEMTVGSPPQTLNILVDTGSSNFAVGAAPHPFLHRYYQRQLSSTYRDLRKGVYVPYTQGKWEGELGTDLVSIPHGPNVTVRANIAAITESDKFFINGSNWEGILGLAYAEIARPDDSLEPFFDSLVKQTHVPNLFSLQLCGAGFPLNQSEVLASVGGSMIIGGIDHSLYTGSLWYTPIRREWYYEVIIVRVEINGQDLKMDCKEYNYDKSIVDSGTTNLRLPKKVFEAAVKSIKAASSTEKFPDGFWLGEQLVCWQAGTTPWNIFPVISLYLMGEVTNQSFRITILPQQYLRPVEDVATSQDDCYKFAISQSSTGTVMGAVIMEGFYVVFDRARKRIGFAVSACHVHDEFRTAAVEGPFVTLDMEDCGYNIPQTDESTLMTIAY
EI(Thi)(Thi)-(Nva)AHF
  Percent Cleavage after 10 hr Incubation with BACE: 25%
EIDL-MVLD
  Percent Cleavage after 10 hr Incubation with BACE: 20%
EVNL-SSHD
  Percent Cleavage after 10 hr Incubation with BACE: 3.5%
EVNL-DAHF
  Percent Cleavage after 10 hr Incubation with BACE: 50%
APSL-DAHF
  Percent Cleavage after 10 hr Incubation with BACE: 0.5%
DETL-DAHF
  Percent Cleavage after 10 hr Incubation with BACE: 1%
ASNL-DAHF
  Percent Cleavage after 10 hr Incubation with BACE: Not Detected
EVNF-EVEF
  Percent Cleavage after 10 hr Incubation with BACE: 85%
EVNL-DAEF
  Percent Cleavage after 10 hr Incubation with BACE: 50%
EIDL-SSHD
  Percent Cleavage after 10 hr Incubation with BACE: 5%
